This note sets out measurements from FireProtDB (doi:10.1016/0022-2836(74)90188-0).

For this data set the following is noted: Aspergillus oryzae (strain ATCC 42149 / RIB 40); pH 4.7; 38 °C; GdnHCl; DSC; glycine 0.04 M; reversible: yes(>90%); whole UniProt chain shown.

B1: Guanyl-specific ribonuclease T1 wild type, P00651 (protein)
chain: MMYSKLLTLTTLLLPTALALPSLVERACDYTCGSNCYSSSDVSTAQAAGYQLHEDGETVGSNSYPHKYNNYEGFDFSVSSPYYEWPILSSGDVYSGGSPGADRVVFNENNQLAGVITHTGASGNNFVECT
Take B1: the unfolding free energy came to 6.6 kcal/mol.
